Drawing on patent US5593834, this text covers relative cleavage rate constant (fold kcomp vs (AA)2), binding signal (fold kcomp vs (AA)3) and binding signal (fold kcomp vs (AA)4) for three sequences.

The data set has as its system AluI restriction endonuclease. In words: cleavage_in_vitro.
[1] abbreviates: 8 mM MgCl2, 2 mM CaCl2, 10 mM Tris pH 7.5.

In turn, “ATATAGCTATAT (double strand) [(AT)2 12-mer]” registered a relative cleavage rate constant (fold kcomp vs (AA)2) (fastest substrate, 8 mM MgCl2, 2 mM CaCl2, 10 mM Tris pH 7.5, 16% glycerol) of 3.02.
In turn, “ATATATAGCTATATAT (double strand) [(AT)3 16-mer]” had a binding signal (fold kcomp vs (AA)3) under setting [1] of 2.95.
The sequence “ATATATATAGCTATATATAT (double strand) [(AT)4 20-mer]” gave a binding signal (fold kcomp vs (AA)4) under setting [1] of 3.
